This note sets out measurements from the supplement of paper PMC9170038.

This data set concerns MS2 coat protein. The experiment in a line: apparent KD of MS2 coat protein; designed switch direction (-1 OFF switch, 1 ON switch): -1; higher = weaker reporter binding. An outline of the steps:
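The apparent KD reported per design is the median over clusters of curve fits to normalised cluster fluorescence. The RNA switches were transcribed on Illumina chips by stalled E. coli RNA polymerase. SNAP-549-labelled MS2 coat protein was titrated from 0.7 or 1.5 nM, doubling up to 3 µM, in Tris-HCl pH 7.5 buffer containing KCl, MgCl2, BSA, DTT, tRNA and Tween-20, with no input, 200 uM small-molecule ligand, or an oligonucleotide input.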

Setting [1] is: input ligand: microRNA oligo, concentration not stated.
[2] abbreviates: Eterna round: R95, input ligand: microRNA oligo, concentration not stated.
[3] abbreviates: Eterna round: R95, input ligand: FMN 200 uM.
The mark [4] stands for this setting: Eterna round: R95, input ligand: none.

With “UGUCUUGCAGGAUAUCAUGUGAUAUACAUGAGGAUCACCCAUGUUAGCCUCAUGAGCGUCUGAGAAGGGUAAGACG [Eternabot (L2) Solution 22] (Eterna round: R97, puzzle: Exclusion 5)”, the “apparent KD of MS2 coat protein” value by setting is: (input ligand: FMN 200 uM) 131 nM; (input ligand: none) 40.1 nM.
Take “CGGUGUAACGCAGGAUAUCAUCGCAACUGACGUUGAGAAGGGCGACAUGAGGAUCACCCAUGUGAUUUCUCAAUAUUAUACAUC [Prohibition 84 - Jieux - Exclusion NG 1] (Eterna round: R96, puzzle: Exclusion NG 1)”: the “apparent KD of MS2 coat protein” value came to 212 nM (input ligand: FMN 200 uM), 36.5 nM under setting [1] and 59.8 nM (input ligand: none).
Consider “CGGUGCUGAGGAUAUACAUGAGGAUCACCCAUGUGUUCCGGCUAGCUGACUGGCGCUUGUAGAAGGCAGUACUG [JL-ex3-2.11 Brourd mod] (puzzle: Exclusion 3)”, for which, under setting [2], the “apparent KD of MS2 coat protein” value is 16.3 nM.
On the same count and under the same terms, with “AAGUAUAGAGGAUAUAGUGAGUACUACAUGAGGAUCACCCAUGUUCUUCAAAGCGUAUUUCUAGAAGGCUAAUGAA [EX-5 Malc#14] (puzzle: Exclusion 5)” the figure was 43.3 nM.
Regarding “UUUACAAGCUAUAGAUCCCACAUGAGGAUCACCCAUGUUCCUGGCCGUGAGGCUAGGUAAACUAUUGCUCGUCUUAU [JL TOV1 3.66] (Eterna round: R97, puzzle: Sensor, turn-off variant 1)”, the “apparent KD of MS2 coat protein” value runs as follows: (input ligand: FMN 200 uM) 252 nM; (input ligand: none) 294 nM.
The corresponding values for “GUCGUGUUAGGAUAUGGCAACUACUAAUAAAUUAGUAGUUGUUAGAAGGAACAUGAGGAUCACCCAUGUAUGAC [-23, -22.5 kcal, A 34%] (Eterna round: R97, puzzle: Exclusion 4)” are 122 nM and 39.9 nM.
Regarding “GCGGACAAGAUGGUGACAUCAGAGACAUGAGGAUCACCCAUGUAGGAUAUCGAUUCGAAACGAAUCGAGAAGGGCAUAGUCCGC [JL denovo 3] (Eterna round: R96, puzzle: Exclusion NG 3)”, the “apparent KD of MS2 coat protein” value was found to be 460 nM (input ligand: FMN 200 uM), 190 nM under setting [1] and 224 nM (input ligand: none).
With “UUCUUACGAGGAUAUCGAUGGUGGAACAUGAGGAUCACCCAUGUAUGAGAUAUUGUAUUUCGAGAAGGCGUUCAGU [JR_E5_Sub058] (puzzle: Exclusion 5)”, the “apparent KD of MS2 coat protein” value under setting [2] came to 51.6 nM.
With “UGGUAACAUGAGGAUCACCCAUGUCAGGAUAUCAGGAAGAAGAGAGGAGAGGAGAAGAUGAGAAGGGACUAUAU [Excluse me! 11 - Jieux - Exclusion 1] (puzzle: Exclusion 1)”, the “apparent KD of MS2 coat protein” value was determined as 21.6 nM under setting [3], 19.8 nM under setting [2] and 26.2 nM under setting [4].
As for “CGAUGUGGAGUGAGGAUAUCGUGUUCGAAAGAACGUGAGAAGGCACAUGAGGAUCACCCAUGUGAUACAUGUCG [Omei Ex4B A16] (Eterna round: R97, puzzle: Brourd's mod of Exclusion 4)”, the “apparent KD of MS2 coat protein” value worked out at 92.2 nM (input ligand: FMN 200 uM) and 24.6 nM (input ligand: none).
The like results for “CCCUCACAUGAGGAUCACCCAUGUCAGGAUAUAGUGCGAUUGUCGAUAUGAAAUUGCAUUAGAAGGGAUUAGGC [Eternabot (L1) Solution 67] (Eterna round: R97, puzzle: Exclusion 1)” were, in that order, 24.8 nM and 17.5 nM.
Regarding “ACAUGAGGAUCACCCAUGUCCGGUUGGUUUUCUCCGGCUGUUGAGGAUAUAGUCCGGUAUCCGCGCUAGAAGGUGAGGGUUGGC [Aenatbe mod 12] (Eterna round: R96, puzzle: Exclusion NG 3)”, the “apparent KD of MS2 coat protein” value was determined as 212 nM (input ligand: FMN 200 uM), 125 nM under setting [1] and 165 nM (input ligand: none).
Regarding “GGAUCGAUAGUGAGGAUAUACCACUGGAUACAGUGGUAGAAGGCACAUGAGGAUCACCCAUGUCCUAACGAUCC [Fiskers BMX 4 - 49] (puzzle: Brourd's mod of Exclusion 4)”, under setting [2], the “apparent KD of MS2 coat protein” value amounted to 17.6 nM.
The same measure, in the same setting: with “GGUGGACAUGAGGAUCACCCAUGUGAGGAUAUCGGCUAUCUACUCGCUGACGGUUGCUCGAGAAGGCACAUUGU [Exclusion 1 V92] (puzzle: Exclusion 1)” the figure was 90.9 nM.
Take “AAAGGAUGCCUAGGAUAUUGACUAAGAAAGGAUUAAGAAGGAGGAAAUAUAUGAGGGAUCCACAUGAGGAUCACCCAUGUACAC [Xesousbege] (Eterna round: R96, puzzle: Exclusion NG 1)”: the “apparent KD of MS2 coat protein” value (input ligand: FMN 200 uM) was 769 nM, the “apparent KD of MS2 coat protein” value under setting [1] stood at 315 nM and the “apparent KD of MS2 coat protein” value (input ligand: none) came out at 607 nM.
As for “CCAUAGUCAGGAUAUACAUGAGGAUCACCCAUGUAAAAUUUUAAUUUAAUUUGAAGGUGUAGAAGGGACCAACC [Ex3 #30] (Eterna round: R97, puzzle: Exclusion 3)”, the “apparent KD of MS2 coat protein” value (input ligand: FMN 200 uM) was 26.3 nM and the “apparent KD of MS2 coat protein” value (input ligand: none) was 33.2 nM.
Take “GGUGAGAGCAAGGAUAUGCAGAAGAGAGAAAGAGCAGAAGGUGCUACAUGAGGAUCACCCAUGUUGGAUGUGUU [JR_E6_Sub014] (puzzle: Exclusion 6)”: the “apparent KD of MS2 coat protein” value stood at 46.3 nM under setting [3], 35.6 nM under setting [2] and 39.3 nM under setting [4].
In the case of “AGCGUGUGAGAAGGAUAUCGACCCGAGACAGAUUGAGAAGGUCUCACAUGAGGAUCACCCAUGUGGACAGGGCGAGCUCCAGUC [Eternabot solution 11] (Eterna round: R96, puzzle: Exclusion NG 1)”, the “apparent KD of MS2 coat protein” value by setting is: (input ligand: FMN 200 uM) 28.3 nM; under setting [1], 14.6 nM; (input ligand: none) 23.4 nM.
Take “UUCAUGUGAGGAUAUAGUACUUCUUCUAUUAUUAUUGAGUACUAGAAGGCACAUGAGGAUCACCCAUGUAGUAC [Ex4 - 3 - 43] (Eterna round: R96, puzzle: Exclusion 4)”: the “apparent KD of MS2 coat protein” value reads like this: (input ligand: FMN 200 uM) 21.8 nM; under setting [1], 22.1 nM; (input ligand: none) 39.1 nM.
The like results for “ACAUGUCAUUGAGGAUAUCGCACACAUGAGGAUCACCCAUGUAAACGGAUGCUCAUUAGUGGGUUCGAGAAGGCGAUGUACAUU [Ex NG2 #99] (Eterna round: R96, puzzle: Exclusion NG 2)” were, in that order, 64.7 nM, 72.9 nM and 68.5 nM.
On to “GGCUAGUCAGGAUAUACGAACAUGUCAAAAGACGUGAAGGGACAUGAGGAUCACCCAUGUAGAAGGGACUAGCC [salish99_ex2_r3_004] (puzzle: Exclusion 2)”, for which the “apparent KD of MS2 coat protein” value under setting [2] worked out at 21.8 nM.
“CCUCUGUGAGGAUAUUGGCAACACUGCACCCAAUAAAGCGCCGAGAAGGCACAUGAGGAUCACCCAUGUACGCA [Eternabot (L1) Solution 66] (Eterna round: R97, puzzle: Exclusion 4)”: the “apparent KD of MS2 coat protein” value by setting is: (input ligand: FMN 200 uM) 22.4 nM; (input ligand: none) 18.4 nM.
With “UCAAUUUUGACAGGAUAUAGUUUUUGUUUUUCUCUAGAAGGGUCUUUGCACAUGAGGAUCACCCAUGUUCUUUUUAUUUGCAUU [JR_ExcNG1_Sub015] (Eterna round: R96, puzzle: Exclusion NG 1)”, the “apparent KD of MS2 coat protein” value (input ligand: FMN 200 uM) came to 62.2 nM, the “apparent KD of MS2 coat protein” value under setting [1] is 42.3 nM and the “apparent KD of MS2 coat protein” value (input ligand: none) came to 63.3 nM.
